How the values were obtained:
[1] = molecular target: T1, human αvβ6 integrin, soluble protein (biotinylated for yeast display; in solution for BLI) (human, UniProt P06756 31-992; P18564 22-707, limits assumed, biotinylated in the yeast display experiments (site not stated)); assay: binding assay not named
T1 construct: also called avb6; alpha(v) beta (6) integrin

[2] = molecular target: T1, human αvβ6 integrin, soluble protein …; assay: BLI titration of purified protein against αvβ6 (FIG. 2f,g); BLI, purified BP2 against αvβ6
Protocol: (§1) Data was collected on an Octet™ RED96 (Forte Bio) and processed using the instrument's software. His Tagged protein binders were immobilized on Ni-NTA octet sensors. The tips are then dipped into wells containing different concentrations of αᵥβ₆. Association and dissociation steps were recorded for 900 s and 1200 s respectively. An empty sensor with no loaded binding protein was included to discard any non-specific binding of αᵥβ₆ to the octet tip.

[3] = molecular target: T1, human αvβ6 integrin, soluble protein …; assay: BLI (Octet RED96), His-tagged binder on Ni-NTA sensor, αvβ6 in solution
Protocol: as §1

[4] = molecular target: T2, human αvβ6 integrin on cells (A431 carcinoma cells; K562 cells stably transfected with αvβ6) (human, UniProt P06756 31-1048; P18564 22-788); assay: cell surface binding assay on K562 cells stably expressing αvβ6/αvβ8; reference αvβ8
T2 construct: whole, on cells; Endogenous on A431 cells, transfected on K562 cells; also called αvβ6(+) cells; K562 avb6 transfected clone A4

[5] = molecular target: T3, αvβ1 integrin on stably transfected K562 cells (UniProt P06756 31-1048; P05556 21-798, limits assumed); assay: cell surface binding on stably transfected K562 cells
T3 construct: whole, on cells; also called avb1; alpha(v) beta (1) integrin

[6] = molecular target: T4, α5β1 integrin on stably transfected K562 cells (UniProt P08648 42-1049; P05556 21-798, limits assumed); assay: as above
T4 construct: whole, on cells; also called a5b1; alpha 5 beta 1

[7] = molecular target: T5, αvβ3 integrin on stably transfected K562 cells (UniProt P06756 31-1048; P05106 27-788, limits assumed); assay: as above
T5 construct: whole, on cells; also called avb3; alpha(v) beta (3) integrin

[8] = molecular target: T6, αiibβ3 integrin on stably transfected K562 cells (UniProt P08514 32-1039; P05106 27-788, limits assumed); assay: as above
T6 construct: whole, on cells; also called aiibb3; alpha (iib) beta (3) integrin

[9] = molecular target: T7, α8β1 integrin on stably transfected K562 cells (UniProt P53708 39-1063; P05556 21-798, limits assumed); assay: as above
T7 construct: whole, on cells; also called a8b1; alpha 8 beta 1

[10] = molecular target: T8, αvβ5 integrin on stably transfected K562 cells (UniProt P06756 31-1048; P18084 24-799, limits assumed); assay: as above
T8 construct: whole, on cells; also called avb5; alpha(v) beta (5) integrin

[11] = molecular target: T2, human αvβ6 integrin on cells (A431 …); assay: cell-based or functional assay

T1 sequence (P06756 31-992 limits assumed, chain 1 of 2): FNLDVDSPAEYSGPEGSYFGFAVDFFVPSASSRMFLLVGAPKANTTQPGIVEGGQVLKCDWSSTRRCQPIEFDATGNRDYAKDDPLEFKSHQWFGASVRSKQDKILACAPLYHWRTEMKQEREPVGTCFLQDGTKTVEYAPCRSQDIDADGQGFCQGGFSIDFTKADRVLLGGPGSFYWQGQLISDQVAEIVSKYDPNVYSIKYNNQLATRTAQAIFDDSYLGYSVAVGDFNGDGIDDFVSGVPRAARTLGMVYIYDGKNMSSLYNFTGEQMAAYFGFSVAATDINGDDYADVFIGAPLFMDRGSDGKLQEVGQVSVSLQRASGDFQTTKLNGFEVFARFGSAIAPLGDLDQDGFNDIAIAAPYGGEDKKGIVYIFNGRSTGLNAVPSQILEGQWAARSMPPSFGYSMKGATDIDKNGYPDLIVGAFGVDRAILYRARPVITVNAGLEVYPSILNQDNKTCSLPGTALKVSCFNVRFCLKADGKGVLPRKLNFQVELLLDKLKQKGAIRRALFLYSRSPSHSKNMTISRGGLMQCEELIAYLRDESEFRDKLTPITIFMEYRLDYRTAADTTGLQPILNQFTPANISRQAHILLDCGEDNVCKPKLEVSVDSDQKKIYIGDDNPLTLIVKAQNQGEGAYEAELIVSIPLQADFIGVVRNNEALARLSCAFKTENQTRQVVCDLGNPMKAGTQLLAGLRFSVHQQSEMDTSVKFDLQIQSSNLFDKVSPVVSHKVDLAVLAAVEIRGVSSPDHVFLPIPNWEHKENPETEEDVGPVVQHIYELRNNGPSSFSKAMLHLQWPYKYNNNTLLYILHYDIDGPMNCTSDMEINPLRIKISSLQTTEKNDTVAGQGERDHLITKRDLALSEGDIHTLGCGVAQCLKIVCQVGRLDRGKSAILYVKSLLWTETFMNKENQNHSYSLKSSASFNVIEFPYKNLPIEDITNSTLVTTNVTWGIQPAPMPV
T1 sequence (P18564 22-707 limits assumed, chain 2 of 2): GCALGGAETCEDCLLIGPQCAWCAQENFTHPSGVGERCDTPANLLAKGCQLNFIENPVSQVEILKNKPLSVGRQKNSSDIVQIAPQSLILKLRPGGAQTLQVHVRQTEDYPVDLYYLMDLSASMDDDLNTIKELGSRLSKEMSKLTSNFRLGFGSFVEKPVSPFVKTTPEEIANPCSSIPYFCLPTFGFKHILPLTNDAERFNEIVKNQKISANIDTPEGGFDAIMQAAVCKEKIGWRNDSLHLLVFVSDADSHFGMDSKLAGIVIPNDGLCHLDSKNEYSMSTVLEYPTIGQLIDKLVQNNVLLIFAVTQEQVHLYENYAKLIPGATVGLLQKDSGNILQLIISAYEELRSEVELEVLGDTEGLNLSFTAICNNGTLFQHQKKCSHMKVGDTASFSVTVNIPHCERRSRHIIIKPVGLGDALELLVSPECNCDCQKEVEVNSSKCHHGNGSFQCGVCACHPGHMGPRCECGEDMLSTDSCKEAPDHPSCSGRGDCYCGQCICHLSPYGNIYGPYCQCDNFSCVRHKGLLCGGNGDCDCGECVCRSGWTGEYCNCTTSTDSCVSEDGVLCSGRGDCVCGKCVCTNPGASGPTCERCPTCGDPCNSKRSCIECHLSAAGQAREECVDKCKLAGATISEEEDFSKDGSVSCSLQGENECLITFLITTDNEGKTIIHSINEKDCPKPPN
T2 sequence (P06756 31-1048, chain 1 of 2): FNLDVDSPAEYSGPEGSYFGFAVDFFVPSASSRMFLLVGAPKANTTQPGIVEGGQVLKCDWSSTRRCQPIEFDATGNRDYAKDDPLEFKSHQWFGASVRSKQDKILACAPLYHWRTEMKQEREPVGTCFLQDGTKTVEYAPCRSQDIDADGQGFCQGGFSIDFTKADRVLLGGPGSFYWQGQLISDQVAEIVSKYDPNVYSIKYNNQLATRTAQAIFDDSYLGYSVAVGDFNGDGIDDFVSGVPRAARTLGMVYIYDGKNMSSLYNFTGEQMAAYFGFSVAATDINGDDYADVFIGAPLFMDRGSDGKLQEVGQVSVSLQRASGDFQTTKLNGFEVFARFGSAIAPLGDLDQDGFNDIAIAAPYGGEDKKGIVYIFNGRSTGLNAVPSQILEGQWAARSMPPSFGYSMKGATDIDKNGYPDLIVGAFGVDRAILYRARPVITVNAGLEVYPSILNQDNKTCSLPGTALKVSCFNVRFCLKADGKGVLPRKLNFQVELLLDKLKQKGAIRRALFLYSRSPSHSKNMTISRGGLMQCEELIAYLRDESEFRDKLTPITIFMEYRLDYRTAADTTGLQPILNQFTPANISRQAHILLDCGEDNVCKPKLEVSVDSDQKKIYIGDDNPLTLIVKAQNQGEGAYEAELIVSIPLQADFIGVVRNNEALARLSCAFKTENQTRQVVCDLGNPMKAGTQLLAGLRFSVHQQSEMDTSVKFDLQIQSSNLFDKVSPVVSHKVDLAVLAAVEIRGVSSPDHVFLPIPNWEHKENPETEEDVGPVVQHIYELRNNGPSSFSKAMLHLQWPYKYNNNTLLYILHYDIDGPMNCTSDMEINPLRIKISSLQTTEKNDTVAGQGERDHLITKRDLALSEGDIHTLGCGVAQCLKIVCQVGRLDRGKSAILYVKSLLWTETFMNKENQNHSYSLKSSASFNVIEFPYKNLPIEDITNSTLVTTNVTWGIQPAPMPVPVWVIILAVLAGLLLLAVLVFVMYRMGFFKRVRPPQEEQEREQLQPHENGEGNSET
T2 sequence (P18564 22-788, chain 2 of 2): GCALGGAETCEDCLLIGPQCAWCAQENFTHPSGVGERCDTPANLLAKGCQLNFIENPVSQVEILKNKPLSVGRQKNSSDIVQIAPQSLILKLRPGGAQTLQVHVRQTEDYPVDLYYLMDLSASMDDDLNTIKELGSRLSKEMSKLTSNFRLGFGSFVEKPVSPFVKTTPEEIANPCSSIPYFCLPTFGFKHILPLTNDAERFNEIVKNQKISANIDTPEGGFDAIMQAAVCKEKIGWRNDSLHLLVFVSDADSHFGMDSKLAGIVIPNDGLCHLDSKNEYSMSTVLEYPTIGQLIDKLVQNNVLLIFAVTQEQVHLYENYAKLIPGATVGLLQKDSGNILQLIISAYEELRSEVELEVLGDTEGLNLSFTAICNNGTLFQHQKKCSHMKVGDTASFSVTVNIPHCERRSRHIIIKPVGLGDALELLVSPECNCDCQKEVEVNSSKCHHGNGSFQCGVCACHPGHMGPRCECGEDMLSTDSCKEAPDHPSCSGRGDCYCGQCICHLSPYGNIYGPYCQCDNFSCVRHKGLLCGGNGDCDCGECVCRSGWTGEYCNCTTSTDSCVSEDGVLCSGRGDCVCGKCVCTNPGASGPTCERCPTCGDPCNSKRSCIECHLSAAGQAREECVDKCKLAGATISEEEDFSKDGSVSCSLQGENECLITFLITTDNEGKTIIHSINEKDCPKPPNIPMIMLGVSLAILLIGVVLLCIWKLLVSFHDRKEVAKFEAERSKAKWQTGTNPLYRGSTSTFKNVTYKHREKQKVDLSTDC
T8 sequence (P06756 31-1048 limits assumed, chain 1 of 2): as the sequence (P06756 31-1048, chain 1 of 2) above
T8 sequence (P18084 24-799 limits assumed, chain 2 of 2): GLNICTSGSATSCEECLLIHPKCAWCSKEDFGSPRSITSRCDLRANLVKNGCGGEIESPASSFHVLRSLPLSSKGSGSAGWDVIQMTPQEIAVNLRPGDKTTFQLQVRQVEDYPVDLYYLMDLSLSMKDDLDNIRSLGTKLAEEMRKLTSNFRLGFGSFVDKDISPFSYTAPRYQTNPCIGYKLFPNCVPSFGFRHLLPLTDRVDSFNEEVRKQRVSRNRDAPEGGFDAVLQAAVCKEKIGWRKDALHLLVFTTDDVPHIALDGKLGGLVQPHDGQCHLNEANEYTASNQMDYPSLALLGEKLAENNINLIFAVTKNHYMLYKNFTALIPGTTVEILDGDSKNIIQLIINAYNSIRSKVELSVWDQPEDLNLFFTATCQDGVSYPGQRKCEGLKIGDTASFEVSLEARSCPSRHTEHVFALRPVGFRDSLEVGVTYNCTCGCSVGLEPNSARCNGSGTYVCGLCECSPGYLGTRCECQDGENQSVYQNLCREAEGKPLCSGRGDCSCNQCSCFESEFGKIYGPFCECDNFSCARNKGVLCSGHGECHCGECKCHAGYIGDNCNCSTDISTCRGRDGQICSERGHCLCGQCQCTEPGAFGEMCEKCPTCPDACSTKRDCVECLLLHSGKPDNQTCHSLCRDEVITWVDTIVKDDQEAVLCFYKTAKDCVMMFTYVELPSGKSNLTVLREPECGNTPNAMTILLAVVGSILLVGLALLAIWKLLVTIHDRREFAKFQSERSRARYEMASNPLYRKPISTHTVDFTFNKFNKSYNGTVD
T5 sequence (P06756 31-1048 limits assumed, chain 1 of 2): as the sequence (P06756 31-1048, chain 1 of 2) above
T5 sequence (P05106 27-788 limits assumed, chain 2 of 2): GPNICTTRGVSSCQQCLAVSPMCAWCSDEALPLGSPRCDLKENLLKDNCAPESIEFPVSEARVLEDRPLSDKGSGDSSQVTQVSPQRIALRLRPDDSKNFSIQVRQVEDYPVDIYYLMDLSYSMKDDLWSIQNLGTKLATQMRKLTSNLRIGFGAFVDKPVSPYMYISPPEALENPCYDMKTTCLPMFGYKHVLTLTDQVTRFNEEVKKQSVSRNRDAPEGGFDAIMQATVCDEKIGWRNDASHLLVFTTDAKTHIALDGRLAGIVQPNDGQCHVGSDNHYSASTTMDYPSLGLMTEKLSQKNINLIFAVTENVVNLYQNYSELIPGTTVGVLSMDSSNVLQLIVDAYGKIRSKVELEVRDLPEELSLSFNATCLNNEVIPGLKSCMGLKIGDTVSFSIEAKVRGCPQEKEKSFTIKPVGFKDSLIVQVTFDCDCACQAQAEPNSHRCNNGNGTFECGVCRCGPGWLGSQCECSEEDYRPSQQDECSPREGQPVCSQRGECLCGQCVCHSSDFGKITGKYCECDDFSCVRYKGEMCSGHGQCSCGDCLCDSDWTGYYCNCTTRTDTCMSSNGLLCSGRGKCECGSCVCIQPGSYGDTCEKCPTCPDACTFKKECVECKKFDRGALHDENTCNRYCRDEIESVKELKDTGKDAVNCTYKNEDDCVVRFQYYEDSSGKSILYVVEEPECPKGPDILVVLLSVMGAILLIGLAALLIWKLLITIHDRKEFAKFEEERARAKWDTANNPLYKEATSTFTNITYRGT

binding result [1]	Kd [2] [nM]	Kd [3] [nM]	fold specificity towards αvβ6 over αvβ8 [4] [fold]	binding result [5]	binding result [6]	binding result [7]	binding result [8]	binding result [9]	binding result [10]	IC50 of the block of αvβ6 mediated TGF-β activation, TMLC luciferase reporter co-culture assay [11] [pM]	Binder
no binding	–	–	–	–	–	–	–	–	–	–	BP2_disulf with knockout mutation of the RGD to KGE (designed binder, if the listing entry starts with Met they are 11 and 13; also called KGE knockout of BP2_disulf) MTKCVVRFVFKGELAELMLRAVKDHLKKEGPHWNITSTNNGKELVVRGIHESDAKRIAKWVEKRFPRVHTETQCD
–	< 1	0.414	> 5000	no binding (tested: up to 200 nM)	no binding (tested: up to 200 nM)	no binding (tested: up to 200 nM)	no binding (tested: up to 200 nM)	no binding (tested: up to 200 nM)	no binding (tested: up to 200 nM)	151	BP2 (av6_3_A39KG64R) (designed binder, not shown: C-terminal His tag (pET29b, NdeI/XhoI)) MAVVRFVFRGDLAELMLRAVKDHLKKEGPHWNITSTNNGKELVVRGIHESDAKRIAKWVEKRFPRVHTETQQD

Reference: patent publication US20220348609A1 (University of Washington, published 2022)
